Test results from the supplement of paper PMC7877785.
± gives the uncertainty stated by the source.

Assay: self-splicing fitness, log relative to wild type (ln ratio); higher = more splicing; Tetrahymena group I intron in knt gene, E. coli kanamycin selection, DiMSum; sequences stand for … in CUCUCU…GGAGGGAAAAGUUAUCAGGCAUGCACCUGGUAGCUAGUCUUUAAACCAAUAGAUUGCAUCGGUUUAAAAGGCAAGACCGUCAAAUUGCGGGAAAGGGGUCAACAGCCGUUCAGUACCAAGUCUCAGGGGAAACUUUGAGAUGGCCUUGCAAAGGGUAUGGUAAUAAGCUGACGGACAUGGUCCUAACCACGCAGCCAAGUCCUAAGUCAACAGAUCUUCUGUUGAUAUGGAUGCAGUUCACAGACUAAAUGUCGGUCGGGGAAGAUGUAUUCUUCUCAUAAGAUAUAGUCGGACCUCUCCUUAAUGGGAGCUAGCGGAUGAAGUGAUGCAACACUGGAGCCGCUGGGAACUAAUUUGUAUGCGAAAGUAUAUUGAUUAGUUUUGGAGUACUCGUGGUCG
How it was run: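 Library with all eight P1ex-region intron nucleotides randomised, intron inside the knt kanamycin-resistance gene on pET-22b(+), in E. coli BL21(DE3). Cells grew overnight at 37°C or 30°C on LB agar with or without 25 μg/mL kanamycin (plus 100 μg/mL carbenicillin, 50 μM IPTG, 0.2% rhamnose), in six replicate transformations. Pooled colonies were amplicon-sequenced on Illumina HiSeq 2500. DiMSum fitness is the error-weighted combination of wild-type-normalised replicate fold changes, kanamycin versus none.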

Row | Sequence | self-splicing fitness (ln) (30 °C) | self-splicing fitness (ln) (37 °C)
1 | CUGAAGCAAUAUUACGGAAU | -3.01 ± 0.15 | -1.96 ± 0.15
2 | CUGAAGCAAUAUUACGGCUC | -2.75 ± 0.16 | -2.52 ± 0.25
3 | CUGAAGCAAUAUUACGUACA | -2.36 ± 0.21 | -1.39 ± 0.25
4 | CUGAAGCAAUAUUACGUGGA | -4.08 ± 0.3 | -2.63 ± 0.27
5 | CUGAAGCAAUAUUACGUGUA | -4.08 ± 0.24 | -2.12 ± 0.2
6 | CUGAAGCAAUAUUACGUUCC |  | -2.57 ± 0.3
7 | CUGCAGCAAUAUUACGAACA | -3.3 ± 0.24 | -1.49 ± 0.14
8 | CUGCAGCAAUAUUACGAAGG | -2.05 ± 0.13 | -1.06 ± 0.16
9 | CUGCAGCAAUAUUACGAAUA | -1.74 ± 0.45 | -1.3 ± 0.2
10 | CUGCAGCAAUAUUACGACAU | -1.04 ± 0.012 | -0.363 ± 0.032
11 | CUGCAGCAAUAUUACGACCC | -3.76 ± 0.36 | -1.05 ± 0.48
12 | CUGCAGCAAUAUUACGAGAG | -1.64 ± 0.12 | -2.96 ± 0.22
13 | CUGCAGCAAUAUUACGAGCA | -3.11 ± 0.21 | -2.38 ± 0.22
14 | CUGCAGCAAUAUUACGAUGG | -1.7 ± 0.08 | -1.18 ± 0.1
15 | CUGCAGCAAUAUUACGCACG | -1.03 ± 0.047 | -0.409 ± 0.069
16 | CUGCAGCAAUAUUACGCAUU | -4.22 ± 0.2 | -2.21 ± 0.23
17 | CUGCAGCAAUAUUACGCGAA | -3.31 ± 0.33 | -2.52 ± 0.27
18 | CUGCAGCAAUAUUACGCGCG | -1.6 ± 0.075 | -0.249 ± 0.087
19 | CUGCAGCAAUAUUACGCGGU | -2.5 ± 0.15 | -2.89 ± 0.23
20 | CUGCAGCAAUAUUACGGCGC | -3.82 ± 0.3 | -2.75 ± 0.4
21 | CUGCAGCAAUAUUACGGGAU | -2.46 ± 0.096 | -2.1 ± 0.15
22 | CUGCAGCAAUAUUACGGUAG | -3.65 ± 0.1 | -2.45 ± 0.11
23 | CUGCAGCAAUAUUACGGUUA | -2.6 ± 0.16 | -1.03 ± 0.12
24 | CUGCAGCAAUAUUACGGUUG | -1.02 ± 0.13 | -1.83 ± 0.19
25 | CUGCAGCAAUAUUACGUCAC | -3.39 ± 0.31 | 

Row | Sequence | self-splicing fitness (ln) (30 °C) | self-splicing fitness (ln) (37 °C)
26 | CUGCAGCAAUAUUACGUGGA | -2.92 ± 0.16 | -3.04 ± 0.2
27 | CUGCAGCAAUAUUACGUGUC | -4.46 ± 0.28 | -2.79 ± 0.29
28 | CUGCAGCAAUAUUACGUUAU | -3.94 ± 0.17 | -3.07 ± 0.3
29 | CUGCAGCAAUAUUACGUUCG | -0.733 ± 0.074 | -0.62 ± 0.095
30 | CUGGAGCAAUAUUACGCACG | -0.0736 ± 0.32 | -1.08 ± 0.29
31 | CUGGAGCAAUAUUACGCAUC |  | -0.757 ± 0.42
32 | CUGGAGCAAUAUUACGGACC | -3.79 ± 0.24 | -2.04 ± 0.34
33 | CUGGAGCAAUAUUACGGAUG | -1.12 ± 0.16 | -0.927 ± 0.14
34 | CUGGAGCAAUAUUACGGGAC | 0.251 ± 0.35 | -1.08 ± 0.41
35 | CUGGAGCAAUAUUACGGGCU | -3.05 ± 0.37 | -2.46 ± 0.49
36 | CUGGAGCAAUAUUACGGGGA | -3.21 ± 0.28 | -2.39 ± 0.37
37 | CUGGAGCAAUAUUACGGGUC | -1.97 ± 0.16 | -2.26 ± 0.34
38 | CUGGAGCAAUAUUACGGUAG | -2.51 ± 0.22 | -0.514 ± 0.16
39 | CUGGAGCAAUAUUACGGUUA | -1.79 ± 0.26 | -2.31 ± 0.26
40 | CUGGAGCAAUAUUACGGUUG | -1.87 ± 0.081 | -1.11 ± 0.095
41 | CUGGAGCAAUAUUACGUAUU | -3.84 ± 0.31 | -2.09 ± 0.27
42 | CUGGAGCAAUAUUACGUCCC |  | -1.4 ± 0.46
43 | CUGGAGCAAUAUUACGUCCU | -3.17 ± 0.16 | -2.56 ± 0.22
44 | CUGGAGCAAUAUUACGUUAU | -4.35 ± 0.31 | -2.82 ± 0.26
45 | CUGGAGCAAUAUUACGUUGC | -3.09 ± 0.33 | 
46 | CUGGAGCAAUAUUACGUUGU | -2.64 ± 0.29 | -3.72 ± 0.33
47 | CUGUAGCAAUAUUACGAACA | -2 ± 0.41 | 
48 | CUGUAGCAAUAUUACGAUAC | -2.43 ± 0.29 | 
49 | CUGUAGCAAUAUUACGAUAG | -1.9 ± 0.23 | -1.17 ± 0.15
50 | CUGUAGCAAUAUUACGAUAU | -4.06 ± 0.32 | -2.75 ± 0.32

Row | Sequence | self-splicing fitness (ln) (30 °C) | self-splicing fitness (ln) (37 °C)
51 | CUGUAGCAAUAUUACGAUCU | -3.56 ± 0.26 | -2.05 ± 0.29
52 | CUGUAGCAAUAUUACGCCAC | -2.54 ± 0.25 | -2.09 ± 0.47
53 | CUGUAGCAAUAUUACGCCAU | -3.3 ± 0.34 | 
54 | CUGUAGCAAUAUUACGCGGG | -3.04 ± 0.24 | -2.07 ± 0.31
55 | CUGUAGCAAUAUUACGCUAG | -3.71 ± 0.21 | -2.36 ± 0.23
56 | CUGUAGCAAUAUUACGGAAC |  | -2.87 ± 0.34
57 | CUGUAGCAAUAUUACGGAAG | -3.31 ± 0.16 | -2.22 ± 0.19
58 | CUGUAGCAAUAUUACGGAUU | -3.48 ± 0.28 | -2.7 ± 0.33
59 | CUGUAGCAAUAUUACGGCUG | -0.442 ± 0.099 | -0.0988 ± 0.13
60 | CUGUAGCAAUAUUACGGCUU | -3.72 ± 0.25 | -2.86 ± 0.3
61 | CUGUAGCAAUAUUACGGUGU | -3.41 ± 0.12 | -2.88 ± 0.14
62 | CUGUAGCAAUAUUACGGUUA | -2.17 ± 0.24 | -2.58 ± 0.36
63 | CUGUAGCAAUAUUACGUAAA | -3.52 ± 0.3 | -1.6 ± 0.23
64 | CUGUAGCAAUAUUACGUAGA | -2.66 ± 0.12 | -2.51 ± 0.16
65 | CUGUAGCAAUAUUACGUAGU | -4.78 ± 0.36 | -2.65 ± 0.35
66 | CUGUAGCAAUAUUACGUCAG | -3.53 ± 0.23 | -2.88 ± 0.34
67 | CUGUAGCAAUAUUACGUCCA |  | -2.89 ± 0.48
68 | CUGUAGCAAUAUUACGUCUG | -0.298 ± 0.088 | 0.128 ± 0.1
69 | CUGUAGCAAUAUUACGUGAU | -1.56 ± 0.085 | -0.44 ± 0.11
70 | CUGUAGCAAUAUUACGUGCG | -1.38 ± 0.08 | -0.547 ± 0.092
71 | CUUAAGCAAUAUUACGAAUA | -2.42 ± 0.27 | -3.17 ± 0.43
72 | CUUAAGCAAUAUUACGACUA | -1.35 ± 0.35 | 
73 | CUUAAGCAAUAUUACGAGGC | -3.19 ± 0.32 | -2.53 ± 0.41
74 | CUUAAGCAAUAUUACGAGUC | -3.23 ± 0.33 | -2.33 ± 0.29
75 | CUUAAGCAAUAUUACGAUCA | -2.93 ± 0.26 | -3.2 ± 0.33

Row | Sequence | self-splicing fitness (ln) (30 °C) | self-splicing fitness (ln) (37 °C)
76 | CUUAAGCAAUAUUACGCAAA | -2.76 ± 0.4 | 
77 | CUUAAGCAAUAUUACGCGAU | -1.91 ± 0.19 | -0.837 ± 0.18
78 | CUUAAGCAAUAUUACGCUCG | -2.09 ± 0.22 | 0.521 ± 0.29
79 | CUUAAGCAAUAUUACGCUUA | -3.39 ± 0.32 | -1.58 ± 0.2
80 | CUUAAGCAAUAUUACGGAGG | -2.43 ± 0.21 | -3.19 ± 0.37
81 | CUUAAGCAAUAUUACGGGAU | -2.82 ± 0.17 | -1.94 ± 0.19
82 | CUUAAGCAAUAUUACGGUAC | -3.99 ± 0.36 | -3.27 ± 0.32
83 | CUUAAGCAAUAUUACGGUGG | -1.7 ± 0.092 | -0.937 ± 0.1
84 | CUUAAGCAAUAUUACGGUUA |  | -2.16 ± 0.29
85 | CUUAAGCAAUAUUACGUACG | -0.58 ± 0.076 | -0.451 ± 0.079
86 | CUUAAGCAAUAUUACGUCCG | -0.258 ± 0.11 | 0.679 ± 0.19
87 | CUUAAGCAAUAUUACGUCGU | -4.59 ± 0.46 | -2.22 ± 0.29
88 | CUUAAGCAAUAUUACGUCUA | -3.67 ± 0.25 | -2.97 ± 0.23
89 | CUUAAGCAAUAUUACGUCUG | -0.605 ± 0.067 | -0.254 ± 0.08
90 | CUUAAGCAAUAUUACGUGUU | -4.03 ± 0.15 | -2.66 ± 0.15
91 | CUUAAGCAAUAUUACGUUCG | -1.05 ± 0.075 | -0.0528 ± 0.099
92 | CUUAAGCAAUAUUACGUUGG | -2.67 ± 0.15 | -2.4 ± 0.14
93 | CUUCAGCAAUAUUACGAAAG | -2.44 ± 0.077 | -1.55 ± 0.12
94 | CUUCAGCAAUAUUACGAAGC | -2.1 ± 0.17 | -2.43 ± 0.48
95 | CUUCAGCAAUAUUACGACUC | -2.49 ± 0.21 | -1.46 ± 0.23
96 | CUUCAGCAAUAUUACGAGGU | -4.39 ± 0.42 | -2.9 ± 0.27
97 | CUUCAGCAAUAUUACGAUAA | -2.68 ± 0.19 | -1.07 ± 0.14
98 | CUUCAGCAAUAUUACGAUAC | -3.22 ± 0.19 | -2.14 ± 0.33
99 | CUUCAGCAAUAUUACGCCAA |  | -2.31 ± 0.48
